Results as given in patent US5686294A.

Substrate: O=C(O)CC(=O)C(=O)O
Assay: purified protein, by the assay type
Settings: other: recombinant enzyme from Escherichia coli JM109 (pMDH1) (Example 6, Table 4)

B1: heat-resistant malate dehydrogenase (MAD) of Bacillus stearothermophilus ATCC 12016 gene, produced by Escherichia coli JM109 (pMDH1), amino acid sequence SEQ … (protein)
chain: MAMKRKKISVIGAGFTGATTAFLLAQKELGDVVLVDIPQLENPTKGKALDMLEASPVLGFDANIIGTSDYADTADSDIVVITAGIARKPGMSRDDLVTTNQKIMKQVTKEVVKYSPNCYIIVLTNPVDAMTYTVFKESGFPKNRVIGQSGVLDTARFRTFVAEELNISVKDVTGFVLGGHGDDMVPLVRYSYAGGIPLEKLIPKDRLDAIVERTRKGGGEIVNLLGNGSAYYAPAASLVEMVEAILKDQRRILPAIAYLEGEYGYEGIYLGVPTILGGNGIEKVIELELTEEEKARSPNPSNPLKMSCACWNSGEAKIRALPGFLSHSQ
Question: B1 was tested. Which Km did it give?
Answer: Its Km is 4.3 µM.
